Target: calmodulin (unlabeled, as used in the gel mobility-shift and kinase assays of Example 2) (UniProt P04353)

lily CCaMK truncation mutant 1-356
Ca2+/calmodulin-dependent kinase activity (histone IIAS phosphorylation): retained Ca2+/calmodulin-dependent kinase activity at a substantially reduced level

— patent US6362395
